Laboratory results published in patent EP3470426A1 (Numab Therapeutics AG, dated 2019).
“And” between values parts separate entries of the source, which are not always exact repeats. Equal entries are not always repeated. Where two headings read alike, the source gives them in different places.

B1: PRO885 (bispecific antibody)
chain: DIQMTQSPSSLSASVGDRVTITCQASQSINDYLAWYQQKPGKAPKLLIYKASTLASGVPSRFSGSGSGTDFTLTISSLQPEDFATYYCQQGYIITDIDNVFGTGTKVTVLGGGGGSQVQLQESGPGLVKPSETLSLTCKVSGFSFSNSYWICWIRQPPGKGLEWIGCTFVGSSDSTYYANWAKGRVTISVDSSKNQFSLKLSSVTAADTAVYYCARHPSDAVYGYANNLWGQGTLVTVSSGGGGSGGGGSGGGGSGGGGSIQMTQSPSSLSASVGDRVTITCQASQSINNVLAWYQQKPGKAPKLLIYRASTLASGVPSRFSGSGSGTDFTLTISSLQPEDFATYYCQSSYGNYGDFGTGTKVTVLGGGGGSQVQLQESGPGLVKPSETLSLTCKVSGFSFSSGYDMCWIRQPPGKGLEWIGCVVAGSVDITYYASWAKGRVTISVDSSKNQFSLKLSSVTAADTAVYYCARKDAYSDAFNLWGQGTLVTVSS
B2: PRO951 (bispecific antibody)
chain: DIQMTQSPSSLSASVGDRVTITCQASQSINDYLAWYQQKPGKAPKLLIYKASTLASGVPSRFSGSGSGTDFTLTISSLQPEDFATYYCQQGYIITDIDNVFGTGTKVTVLGGGGGSEVQLVESGGGLVQPGGSLRLSCAASGFSFNNDYDMCWVRQAPGKGLEWIGCIDTGDGSTYYASWAKGRFTISRDNSKNTVYLQMNSLRAEDTAVYYCAREAASSSGYGMGYFDLWGQGTLVTVSSGGGGSGGGGSGGGGSGGGGSIQMTQSPSSLSASVGDRVTITCQSSQSVYDNNWLAWYQQKPGKAPKLLIYRASNLASGVPSRFSGSGSGTDFTLTISSLQPEDFATYYCQGTYLSSNWYWAFGTGTKVTVLGGGGGSQVQLQESGPGLVKPSETLSLTCKVSGFSFSSGYDMCWIRQPPGKGLEWIGCVVAGSVDITYYASWAKGRVTISVDSSKNQFSLKLSSVTAADTAVYYCARKDAYSDAFNLWGQGTLVTVSS
B3: Urelumab (antibody, V domains shown)
VH: QVQLQQWGAGLLKPSETLSLTCAVYGGSFSGYYWSWIRQSPEKGLEWIGEINHGGYVTYNPSLESRVTISVDTSKNQFSLKLSSVTAADTAVYYCARDYGPGNYDWYFDLWGRGTLVTVSS
VL: EIVLTQSPATLSLSPGERATLSCRASQSVSSYLAWYQQKPGQAPRLLIYDASNRATGIPARFSGSGSGTDFTLTISSLEPEDFAVYYCQQRSNWPPALTFGGGTKVEIK
B4: PRO997 (scFv)
scFv: DIQMTQSPSSLSASVGDRVTITCQASQSIGTYLAWYQQKPGKAPKLLIYRAFILASGVPSRFSGSGSGTDFTLTISSLQPEDFATYYCQSNFYSDSTTIGPNAFGTGTKVTVLGGGGGSGGGGSGGGGSGGGGSQVQLQESGPGLVKPSETLSLTCKVSGFSFNSDYWIYWIRQPPGKGLEWIGSIYGGSSGNTQYASWAQGRVTISVDSSKNQFSLKLSSVTAADTAVYYCARGYVDYGGATDLWGQGTLVTVSS
notes: also called 37-20-B03sc01; PRO977

How the values were obtained:
[1] = molecular target: T1, CD137 on Jurkat NFkB reporter cells (human, UniProt Q07011 24-255); assay: cell-based or functional assay
[2] = molecular target: T1, CD137 on Jurkat NFkB reporter cells; assay: cell-based or functional assay; remark: listed apart in the source
[3] = molecular target: T1, CD137 on Jurkat NFkB reporter cells; assay: cell-based or functional assay; remark: listed apart in the source
human PD-L1 on cells [4] = molecular target: T2, human PD-L1 on cells (human, UniProt Q9NZQ7 19-290); assay: cell-based or functional assay
[5] = molecular target: T1, CD137 on Jurkat NFkB reporter cells; assay: cell-based or functional assay; remark: listed apart in the source
[6] = molecular target: T1, CD137 on Jurkat NFkB reporter cells; assay: cell-based or functional assay; remark: listed apart in the source
[7] = molecular target: T1, CD137 on Jurkat NFkB reporter cells; assay: cell-based or functional assay; remark: listed apart in the source
[8] = molecular target: T1, CD137 on Jurkat NFkB reporter cells; assay: cell-based or functional assay; remark: listed apart in the source
human PD-L1 on cells [9] = molecular target: T2, human PD-L1 on cells; assay: cell-based or functional assay; remark: listed apart in the source
[10] = molecular target: T1, CD137 on Jurkat NFkB reporter cells; assay: cell-based or functional assay; remark: listed apart in the source
human PD-L1 on cells [11] = molecular target: T2, human PD-L1 on cells; assay: cell-based or functional assay; remark: listed apart in the source
[12] = molecular target: human PD-L1-Fc chimeric protein (human); assay: SPR, PD-L1-Fc captured, binder injected
human PD-L1 on cells [13] = molecular target: T2, human PD-L1 on cells; assay: cell-based or functional assay; remark: listed apart in the source

Binder | max. activation (%), NF-kB reporter, CHO-PD-L1 [1] [%] | EC50, NFkB-luciferase reporter, PD-L1 expressing CHO cells, 24h [2] [ng/mL] | EC50, NFkB-luciferase reporter, PD-L1 expressing CHO cells, 24h, + HSA [2] [ng/mL] | EC50, NFkB-luciferase reporter, PD-L1 expressing CHO cells, 6h [3] [ng/mL] | EC50, NFkB-luciferase reporter, PD-L1 expressing CHO cells, 6h, + HSA [3] [ng/mL] | IC50, NFAT-luciferase reporter gene assay (human PD-L1 on cells [4]) [ng/mL] | EC50, NFkB-luciferase reporter, HCC827 cells without IFNg [5] | EC50, NFkB-luciferase reporter, CHO-PD-L1 cells [6] | EC50, NFkB-luciferase reporter, HCC827 cells stimulated with IFNg [7] | EC50, NFkB-luciferase reporter, CHO-PD-L1 cells [8] [ng/mL] | EC50 of IL-2 secretion, PBMC stimulated with SEA (human PD-L1 on cells [9]) [ng/mL] | EC50, NFkB-luciferase reporter, HCC827 with IFNy stimulation, 24h [10] [ng/mL] | EC50, NFkB-luciferase reporter, HCC827 without IFNy stimulation, 24h [10] [ng/mL] | further results
B1 | 499 | 13.8 | 14.8 | 7.84 | 7.92 | 137 | 11.5 ng/mL and 13.1 ng/mL and 13 ng/mL | 5.13 ng/mL and 4.86 ng/mL and 6.3 ng/mL | 9.27 ng/mL and 8.88 ng/mL and 9.23 ng/mL | 11.7 | 39.9 | 7.51 | 9.52 | max. activation (%), NF-kB reporter, HCC827 +IFNg [1]: 134%; max. activation (%), NF-kB reporter, HCC827 -IFNg [1]: 111%; EC50 of IL-2 secretion, PBMC + CHO cells expressing PD-L1 (50000/well), anti-CD3 1 ug/ml (human PD-L1 on cells [11]): 12.8 ng/mL; EC50 of IL-2 secretion, PBMC + CHO cells expressing PD-L1 (50000/well), anti-CD3 2 ug/ml (human PD-L1 on cells [11]): 52 ng/mL; EC50 of IL-2 secretion, PBMC + CHO cells expressing PD-L1 (100000/well), anti-CD3 1 ug/ml (human PD-L1 on cells [11]): 86.2 ng/mL; EC50 of IL-2 secretion, PBMC + CHO cells expressing PD-L1 (100000/well), anti-CD3 2 ug/ml (human PD-L1 on cells [11]): 41.9 ng/mL; EC50 of IL-2 secretion, PBMC + CHO cells expressing PD-L1 (200000/well), anti-CD3 1 ug/ml (human PD-L1 on cells [11]): 80.6 ng/mL; EC50 of IL-2 secretion, PBMC + CHO cells expressing PD-L1 (200000/well), anti-CD3 2 ug/ml (human PD-L1 on cells [11]): 30.1 ng/mL
B2 | 432 | – | – | – | – | 88.5 | – | – | – | 33.7 | – | – | – | –
B3 | – | 46.6 | 78.2 | 56.5 | 77.7 | – | 212 ng/mL and 110 ng/mL and 112 ng/mL | 79.5 ng/mL and 104 ng/mL and 86.5 ng/mL | 114 ng/mL and 145 ng/mL and 108 ng/mL | 79.1 | – | 52.8 | 47.5 | –
B4 | – | – | – | – | – | 11.1 | – | – | – | – | 40.9 | – | – | fold higher affinity against the STR graft of clone 33-03-G02 (PRO1126) [12]: ~2 fold; fold higher potency on VH4 framework than on VH1 framework (PRO1013), NFAT reporter (human PD-L1 on cells [13]): ~2 fold
